Biological target: CD161 (human)
Experiment: other (literature value, Kamishikiryo et al 2011)

Chain of CD161 (human) (chain, as listed by the source): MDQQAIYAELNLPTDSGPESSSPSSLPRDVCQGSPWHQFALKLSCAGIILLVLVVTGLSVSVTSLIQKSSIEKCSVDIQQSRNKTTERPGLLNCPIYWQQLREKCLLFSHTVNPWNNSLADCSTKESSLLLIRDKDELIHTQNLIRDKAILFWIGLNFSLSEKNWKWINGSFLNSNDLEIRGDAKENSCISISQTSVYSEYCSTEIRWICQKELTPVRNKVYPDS

Kd: 48 µM
B1: CLEC2D (protein)
chain: RANCHQEPSVCLQAACPESWIGFQRKCFYFSDDTKNWTSSQRFCDSQDADLAQVESFQELNFLLRYKGPSDHWIGLSREQGQPWKWINGTEWTRQFPILGAGECAYLNDKGASSARHYTERKWICSKSDIHV

— patent US20260308262 (published 2026)
